Measured values: patent US20230391882A1 (NUMAB THERAPEUTICS, published 2023)

Assays:
[1] = target: soluble mesothelin (sMSLN) (UniProt Q13421 296-580, limits assumed); test: cell-based or functional assay
[2] = target: recombinant human mesothelin (human MSLN) (human, UniProt Q13421 296-580, limits assumed); test: KD ratio told in running text; method not given
[3] = target: T1, mesothelin (MSLN) on target cells (H226, MeT-5A) (UniProt Q13421 37-598, limits assumed); test: cell-based or functional assay
[4] = target: T1, mesothelin (MSLN) on target cells …; test: cell-based or functional assay; remark: listed apart in the source
[5] = target: T1, mesothelin (MSLN) on target cells …; test: cell-based or functional assay; remark: listed apart in the source
[6] = target: T1, mesothelin (MSLN) on target cells …; test: cell-based or functional assay; remark: listed apart in the source
[7] = target: T1, mesothelin (MSLN) on target cells …; test: cell-based or functional assay; remark: listed apart in the source
[8] = target: T1, mesothelin (MSLN) on target cells …; test: cell-based or functional assay; remark: listed apart in the source
[9] = target: T1, mesothelin (MSLN) on target cells …; test: cell-based or functional assay; remark: listed apart in the source
[10] = target: T1, mesothelin (MSLN) on target cells …; test: cell-based or functional assay; remark: listed apart in the source
[11] = target: T1, mesothelin (MSLN) on target cells …; test: cell-based or functional assay; remark: listed apart in the source

- fold better binding affinity (KD) than the MSLN-BDs of PRO2000, PRO2562, PRO2566 and PRO2567 [2]: > 5 fold
- EC50 (read off the curve); activated CD8+ cells (CD69+) with MeT-5A cells (low MSLN) [7]: ~0.01 nM
- EC50 (read off the curve); activated CD8+ cells (CD69+) with H226 cells, with 50 ng/ml sMSLN [8]: ~0.2 nM
- EC50 (read off the curve); activated CD8+ cells (CD69+) with H226 cells, without sMSLN [9]: ~0.02 nM
- EC50 (read off the curve); activated CD8+ cells (CD69+) with H226 cells, with 500 ng/ml sMSLN [10]: ~1 nM
B1: PRO1872 (MSLN x CD3 x hSA) (54-22-H03-sc01 scFv/28-21-D09-sc04 scDb-i/23-13-A01-sc02 diS scDb-o) (other)
chain: DVVMTQSPSSLSASVGDRVTITCQASQIISSRSAWYQQKPGQPPKLLIYQASKLASGVPSRFSGSGSGTDFTLTISSLQPEDFATYYCQCTYIDSNFGAFGCGTKLTVLGGGGGSEVQLVESGGGLVQPGGSLRLSCAASGFSLSSYDMSWVRQAPGKGLAWIGASYASGPTYYASWAKGRFTISRDNSKNTVYLQMNSLRAEDTATYFCARGGWTGTSHSNIWGQGTLVTVSSGGGGSGGGGSGGGGSGGGGSDIQMTQSPSSLSASVGDRVTITCQSSQSVFSNNYLAWFQQKPGQSPKRLIYSASTLASGVPSRFSGSGSGTDFTLTISSLQPEDFATYYCLGSYACSSADCYVFGTGTKVTVLGGGGGSEVQLVESGGGLVQPGGSLRLSCAASGFSFSSSYWICWVRQAPGKCLEWVGCVFTGDGTTYYASWAKGRFTISRDNSKNTVYLQMNSLRAEDTATYFCARPVSVYYYGMDLWGQGTLVTVSSGGGGSGGGGSDIQMTQSPSSLSASVGDRVTITCQASESIGNYLAWYQQKPGKAPKLLIYSASTLASGVPSRFSGSGSGTDFTLTISSLQPEDFATYYCQSTDYGDSYIFGTGTKVTVLGGGGGSGGGGSGGGGSGGGGSEVQLVESGGGLVQPGGSLRLSCAASGISVSNDYYMCWVRQAPGKGLEWIGCISTYIGNTHYASWAKGRFTISRDNSKNTVYLQMNSLRAEDTAVYYCAKNAGYPGYRYAIDLWGQGTLVTVSS
notes: also called MSLNlowKDxCD3xhSA
- increase of EC50 for killing high MSLN expressing target cells in the presence of 50 ng/ml sMSLN [1]: ~8 fold
- increase of EC50 for killing high MSLN expressing target cells in the presence of 500 ng/ml sMSLN [1]: > 75 fold
- EC50 (read off the curve); specific killing of H226 cells, in presence of 50 ng/ml sMSLN [3]: ~0.6 nM
- EC50 (read off the curve); specific killing of H226 cells (high MSLN) [4]: ~0.005 nM
- EC50 (read off the curve); specific killing of H226 cells, no sMSLN [5]: ~0.05 nM
- EC50 (read off the curve); specific killing of MeT-5A cells (low MSLN) [6]: ~0.01 nM
- EC50 (read off the curve); specific killing of H226 cells, in presence of 500 ng/ml sMSLN [11]: ~5 nM
